Here are results for 48 molecules from patent publication US20040253247A1 (Genentech, published 2004).

Where no end group is shown, it is not given here.

Assay in all cases: phage ELISA
The target in assay [1] is rabbit albumin (rabbit, UniProt P49065 25-608). As to the method:
(§1) Phage ELISA—Phage clones (˜10¹¹ phage) were added to plates coated with rat, rabbit or human albumin. The microtiter plate was washed with wash buffer and bound phage were detected with HRP/Anti-M13 Conjugate. The amount of HRP bound was measured using ABTS/H₂O₂ substrate and monitoring the change at 405 nm.

For assay [2], the target named is human albumin (human, UniProt P02768 25-609). The protocol: as §1
Assay [3] addresses rat albumin (rat, UniProt P02770 25-608). The protocol:
as §1

Chain of rat albumin (P02770 25-608 limits assumed): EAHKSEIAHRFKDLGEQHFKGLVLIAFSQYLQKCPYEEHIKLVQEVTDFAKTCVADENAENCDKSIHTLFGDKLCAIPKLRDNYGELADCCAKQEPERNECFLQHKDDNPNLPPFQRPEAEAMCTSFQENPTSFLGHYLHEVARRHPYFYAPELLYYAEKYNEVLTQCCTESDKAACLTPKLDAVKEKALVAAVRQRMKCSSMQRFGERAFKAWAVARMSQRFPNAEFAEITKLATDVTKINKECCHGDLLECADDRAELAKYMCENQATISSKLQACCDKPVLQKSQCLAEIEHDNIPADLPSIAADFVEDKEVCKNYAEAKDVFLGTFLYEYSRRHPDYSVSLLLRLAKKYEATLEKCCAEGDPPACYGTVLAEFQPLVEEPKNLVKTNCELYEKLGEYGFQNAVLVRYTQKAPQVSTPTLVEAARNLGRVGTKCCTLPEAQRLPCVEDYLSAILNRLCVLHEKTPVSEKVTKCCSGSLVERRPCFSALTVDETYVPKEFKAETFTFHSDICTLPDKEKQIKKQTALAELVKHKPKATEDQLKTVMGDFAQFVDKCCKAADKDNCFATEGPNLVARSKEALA
Chain of rabbit albumin (P49065 25-608 limits assumed): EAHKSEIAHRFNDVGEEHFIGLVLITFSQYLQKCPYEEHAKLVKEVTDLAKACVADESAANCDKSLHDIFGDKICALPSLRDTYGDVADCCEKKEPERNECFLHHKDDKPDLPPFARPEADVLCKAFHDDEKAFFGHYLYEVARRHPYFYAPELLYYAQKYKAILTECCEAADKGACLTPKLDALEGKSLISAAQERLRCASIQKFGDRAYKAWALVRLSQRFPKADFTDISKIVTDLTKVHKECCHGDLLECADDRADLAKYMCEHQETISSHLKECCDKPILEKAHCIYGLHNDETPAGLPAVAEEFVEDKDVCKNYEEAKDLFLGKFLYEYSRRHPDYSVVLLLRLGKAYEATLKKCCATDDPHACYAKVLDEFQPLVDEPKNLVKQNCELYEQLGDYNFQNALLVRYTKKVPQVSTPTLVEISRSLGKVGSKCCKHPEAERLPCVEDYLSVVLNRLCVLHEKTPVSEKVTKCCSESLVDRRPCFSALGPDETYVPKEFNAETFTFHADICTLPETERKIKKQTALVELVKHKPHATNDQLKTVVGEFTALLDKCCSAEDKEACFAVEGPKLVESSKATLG

On to FEDLCVVRWGCLWGD (phage clone, Library RBC) [RBC-R6], for which the binding result in assay [1] and in assay [2] was “no binding” throughout.
Take ERQMEDFCLPQWGCLWGDGV (phage clone, Library RB) [RB-R1]: the binding result in assay [1] and in assay [2] was “no binding” each time.
As for GRQVVDFCLPKWGCLWEEGL (phage clone, Library RB) [RB-R2], the binding result in assay [1] and in assay [2] was “no binding” in each case.
As for WDDICFRDWGCLWGS (phage clone, Library RBC) [RBC-R7], the binding result in assay [1] and in assay [2] was “no binding” throughout.
WEDLCLPDWGCLWED (phage clone, Library RBC) [RBC-R5]: the binding result in assay [1] and in assay [2] was “no binding” in each case.
Consider QMQMSDFCLPQWGCLWGDGY (phage clone, Library RB) [RB-R3], for which the binding result in assay [1] and in assay [2] was “no binding” each time.
Consider DFDLCLPDWGCLWDD (phage clone, Library RBC) [RBC-R10], for which the binding result in assay [1] and in assay [2] was “no binding” throughout.
Turning to QGYMVDFCLPRWGCLWGDAN (phage clone, Library RB) [RB-R12], the binding result in assay [2] is on record as “no binding”.
In the case of REPASLVCYFEDICFVRAEA (phage clone, Library HB) [HB-H3], the binding result in assay [1] and in assay [3] was “no binding” in each case.
Regarding QSQLEDFCLPKWGCLWGDGF (phage clone, Library RB) [RB-R15], the binding result in assay [2] is “no binding”.
QRHMMDFCLPKWGCLWGDGY (phage clone, Library RB) [RB-R4]: the binding result in assay [2] was “no binding”.
DICLPVWGCLW (phage clone, Library RC) [RC-R18]: the binding result in assay [1] and in assay [2] was “no binding” in each case.
Take RMPASLPCYWETICYESSEQ (phage clone, Library HB) [HB-H16]: the binding result in assay [1] and in assay [3] was “no binding” throughout.
For LVPERIVCYFESICYERSEL (phage clone, Library HB) [HB-H4], the binding result in assay [1] and in assay [3] was “no binding” throughout.
Take KLCYFPGICWS (phage clone, Library HC) [HC-H2]: the binding result in assay [1] and in assay [3] was “no binding” throughout.
On to RWQTEDVCLPKWGCLFGDGV (phage clone, Library RB) [RB-B1], for which the binding result in assay [2] is “no binding”.
MDDLCLPNWGCLWGD (phage clone, Library RBC) [RBC-R2]: the binding result in assay [1] and in assay [2] was “no binding” each time.
As for ETCYFPGICWL (phage clone, Library HC) [HC-H12], the binding result in assay [1] and in assay [3] was “no binding” in each case.
For the molecule GMCYFPGICWA (phage clone, Library HC) [HC-H4], the binding result in assay [1] and in assay [3] was “no binding” each time.
As to RAPERWVCYWEGICFDRYEQ (phage clone, Library HB) [HB-H1], the binding result in assay [1] and in assay [3] was “no binding” throughout.
Consider MDDICLHHWGCLWDE (phage clone, Library RBC) [RBC-R1], for which the binding result in assay [1] and in assay [2] was “no binding” each time.
For the molecule DICLPVWGCLW (phage clone, Library RC) [RC-R2], the binding result in assay [1] and in assay [2] was “no binding” each time.
With DICLPVWGCLW (phage clone, Library RC) [RC-R1], the binding result in assay [1] and in assay [2] was “no binding” in each case.
Take QRQIMDFCLPHWGCLWGDGF (phage clone, Library RB) [RB-R10]: the binding result in assay [1] and in assay [2] was “no binding” throughout.
Take SEDFCLPVWGCLWED (phage clone, Library RBC) [RBC-R9]: the binding result in assay [1] and in assay [2] was “no binding” each time.
Regarding DMCYFPGICFN (phage clone, Library HC) [HC-H18], the binding result in assay [1] and in assay [3] was “no binding” each time.
Take QRPIMDFCLPKWGCLWEDGF (phage clone, Library RB) [RB-R7]: in assay [2], the binding result is reported as “no binding”.
In the case of NWDLCFPDWGCLWDD (phage clone, Library RBC) [RBC-R8], the binding result in assay [1] and in assay [2] was “no binding” throughout.
As to RGPDVCYWPSICFERSMP (not fully specified (bridges); cysteine pairing not given here, phage clone, Library HB) [HB-H6], the binding result in assay [1] and in assay [3] was “no binding” in each case.
With MEPSRSVCYAEGICFDRGEQ (phage clone, Library HB) [HB-H8], the binding result in assay [1] and in assay [3] was “no binding” each time.
As for EEDVCLPVWGCLWEG (phage clone, Library RBC) [RBC-R20], the binding result in assay [1] and in assay [2] was “no binding” in each case.
On to DICLPVWGCLW (phage clone, Library RC) [RC-R3], for which the binding result in assay [1] and in assay [2] was “no binding” in each case.
Regarding KMGRVDFCLPKWGCLWGDEL (phage clone, Library RB) [RB-R13], in assay [2], the binding result is “no binding”.
Consider LAEMCYFPGICWMSA (phage clone, Library HBC) [HBC-H7], for which the binding result in assay [1] and in assay [3] was “no binding” each time.
Consider FEDFCLPNWGCLWGS (phage clone, Library RBC) [RBC-R4], for which the binding result in assay [1] and in assay [2] was “no binding” throughout.
In the case of KSRMGDFCLPEWGCLWGDEL (phage clone, Library RB) [RB-R9], the binding result in assay [1] and in assay [2] was “no binding” in each case.
In the case of QGGMGDFCLPQWGCLWGEDL (phage clone, Library RB) [RB-R17], in assay [2], the binding result is reported as “no binding”.
RTAESLVCYWPGICFAQSER (phage clone, Library HB) [HB-H18]: the binding result in assay [1] and in assay [3] was “no binding” in each case.
Consider ERQMVDFCLPKWGCLWGDGF (phage clone, Library RB) [RB-R11], for which the binding result in assay [2] was “no binding”.
For QRQVVDFCLPQWGCLWGDGS (phage clone, Library RB) [RB-R14], the binding result in assay [1] and in assay [2] was “no binding” in each case.
Regarding EWDVCLPHWGCLWDG (phage clone, Library RBC) [RBC-R16], the binding result in assay [2] was “no binding”.
As for DICYIPGICWM (phage clone, Library HC) [HC-H6], the binding result in assay [1] and in assay [3] was “no binding” in each case.
Turning to DICLPVWGCLW (phage clone, Library RC) [RC-R12], the binding result in assay [1] and in assay [2] was “no binding” in each case.
As to DICLPVWGCLW (phage clone, Library RC) [RC-R10], the binding result in assay [1] and in assay [2] was “no binding” in each case.
In the case of DMCYFPGICWL (phage clone, Library HC) [HC-H13], the binding result in assay [1] and in assay [3] was “no binding” in each case.
Take QRLMWEICLPLWGCLWGDGL (phage clone, Library RB) [RB-R5]: the binding result in assay [1] and in assay [2] was “no binding” each time.
Regarding MFDLCLPKWGCLWGN (phage clone, Library RBC) [RBC-R12], the binding result in assay [1] and in assay [2] was “no binding” throughout.
For QGDFWDICLPRWGCLSGEGY (phage clone, Library RB) [RB-B10], the binding result in assay [2] was “no binding”.
